Data: patent US20120322725A1 (INDIANA UNIVERSITY RESEARCH AND TECHNOLOGY, published 2012)
Like-named read-outs stand apart in the source and are kept apart here. Values belong to the binder of their own block, whether it stands above or below them. Bridge positions count the residues as written; N and C are the ends. Square brackets hold non-standard residues; d marks the D form. Ends that are not written are not given here. PLA = 3-phenyllactic acid (2-hydroxy-3-phenylpropanoic acid); Abu(4-SO3H) = N[C@@H](CCS(=O)(=O)O)C(=O)O; PhLac = O=C(O)[C@@H](O)Cc1ccccc1

Key:
GLP-1 receptor [1] = molecular target: T1, GLP-1 receptor (UniProt P43220 24-463, limits assumed); assay: cell-based or functional assay
glucagon receptor [2] = molecular target: T2, glucagon receptor (UniProt P47871 26-477, limits assumed); assay: cell-based or functional assay
glucagon receptor [3] = molecular target: T2, glucagon receptor; assay: cell-based or functional assay; remark: listed apart in the source
GLP-1 receptor [4] = molecular target: T1, GLP-1 receptor; assay: cell-based or functional assay; remark: listed apart in the source
glucagon receptor [5] = molecular target: T2, glucagon receptor; assay: cell-based or functional assay; remark: listed apart in the source
glucagon receptor [6] = molecular target: T2, glucagon receptor; assay: column IC50(nM) beside the cAMP columns of Table H; taken as receptor binding
glucagon receptor [7] = molecular target: T2, glucagon receptor; assay: cell-based or functional assay; remark: listed apart in the source
glucagon receptor [8] = molecular target: T2, glucagon receptor; assay: cell-based or functional assay; remark: listed apart in the source
glucagon receptor [9] = molecular target: T2, glucagon receptor; assay: cell-based or functional assay; remark: listed apart in the source
glucagon receptor [10] = molecular target: T2, glucagon receptor; assay: receptor binding, method not described
glucagon receptor [11] = molecular target: T2, glucagon receptor; assay: cell-based or functional assay; remark: listed apart in the source
glucagon receptor [12] = molecular target: T2, glucagon receptor; assay: receptor binding, method not described; remark: listed apart in the source
glucagon receptor [13] = molecular target: T2, glucagon receptor; assay: receptor binding (named so for the same values in Table I), method not described
glucagon receptor [14] = molecular target: T2, glucagon receptor; assay: receptor binding, method not described; remark: listed apart in the source
glucagon receptor [15] = molecular target: T2, glucagon receptor; assay: receptor binding, method not described; remark: listed apart in the source

T2 sequence (P47871 26-477 limits assumed): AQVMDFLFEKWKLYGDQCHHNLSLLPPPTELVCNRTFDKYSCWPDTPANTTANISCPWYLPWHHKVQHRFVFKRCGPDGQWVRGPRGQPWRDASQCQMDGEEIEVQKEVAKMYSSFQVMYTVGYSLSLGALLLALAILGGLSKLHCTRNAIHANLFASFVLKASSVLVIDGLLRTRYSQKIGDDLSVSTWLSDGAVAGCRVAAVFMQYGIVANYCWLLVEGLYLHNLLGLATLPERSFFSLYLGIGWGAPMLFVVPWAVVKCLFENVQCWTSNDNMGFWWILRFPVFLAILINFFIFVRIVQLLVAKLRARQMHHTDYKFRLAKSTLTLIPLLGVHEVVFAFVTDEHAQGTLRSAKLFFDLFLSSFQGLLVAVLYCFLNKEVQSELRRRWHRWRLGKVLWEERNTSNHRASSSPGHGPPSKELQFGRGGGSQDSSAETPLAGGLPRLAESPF

- Glucagon IC50 (glucagon receptor [2]): 63 nM
- GLP-1 EC50 (GLP-1 receptor [1]): 177 nM
- Glucagon IC50 (glucagon receptor [3]): 13 nM
- GLP-1 EC50 (GLP-1 receptor [4]): 21 nM
B3: [PLA6, D9, K12E16(Lactam), D28]G(6-29) (peptide)
peptide: TSDYSKYLDERRAQDFVQWLMDT
modifications: not fully specified; PLA at position 6, N-terminal to the letters given; lactam between K12 and E16

- IC50 (glucagon receptor [6]): 33.9 nM
- cAMP IC50 (glucagon receptor [7]): 98.3 nM
- cAMP pA2 (glucagon receptor [7]): 6.77
B5: [hCys^9(SO3H)]Glucagon(aa5-29)-NH2 (peptide)
peptide: TFTSXYSKYLDSRRAQDFVQWLMNT
HELM: PEPTIDE1{T.F.T.S.[O=C([C@H](CCS(=O)(=O)O)N[*:1])[*:2]].Y.S.K.Y.L.D.S.R.R.A.Q.D.F.V.Q.W.L.M.N.T.[am]}$$$$V2.0; N-terminus assumed
SMILES: CSCC[C@H](NC(=O)[C@H](CC(C)C)NC(=O)[C@H](Cc1c[nH]c2ccccc12)NC(=O)[C@H](CCC(N)=O)NC(=O)[C@@H](NC(=O)[C@H](Cc1ccccc1)NC(=O)[C@H](CC(=O)O)NC(=O)[C@H](CCC(N)=O)NC(=O)[C@H](C)NC(=O)[C@H](CCCNC(=N)N)NC(=O)[C@H](CCCNC(=N)N)NC(=O)[C@H](CO)NC(=O)[C@H](CC(=O)O)NC(=O)[C@H](CC(C)C)NC(=O)[C@H](Cc1ccc(O)cc1)NC(=O)[C@H](CCCCN)NC(=O)[C@H](CO)NC(=O)[C@H](Cc1ccc(O)cc1)NC(=O)[C@H](CCS(=O)(=O)O)NC(=O)[C@H](CO)NC(=O)[C@@H](NC(=O)[C@H](Cc1ccccc1)NC(=O)[C@@H](N)[C@@H](C)O)[C@@H](C)O)C(C)C)C(=O)N[C@@H](CC(N)=O)C(=O)N[C@H](C(N)=O)[C@@H](C)O

- IC50(nM) (cAMP, inhibit 0.8 mM Glucagon) (glucagon receptor [5]): 328 nM
B8: [PLA^5, E^9]Glucagon(aa5-29)-NH2 (peptide)
peptide: {PLA}-FTSEYSKYLDSRRAQDFVQWLMNT-NH2

- IC50 (glucagon receptor [6]): 59.1 nM
- IC50 (glucagon receptor [10]): 59.1 nM
- cAMP IC50 (glucagon receptor [7]): 133 nM
- cAMP pA2 (glucagon receptor [7]): 7.16
- cAMP IC50 (glucagon receptor [11]): 133 nM
- cAMP pA2 (glucagon receptor [11]): 7.16
B9: [hCys^9(SO3H)]Glucagon(aa6-29)-NH2 (peptide)
peptide: FTS[Abu(4-SO3H)]YSKYLDSRRAQDFVQWLMNT-NH2
notes: also called [hCys(SO3)9]Glucagon(aa6-29)-NH2

- IC50 (glucagon receptor [6]): 41.5 nM
- cAMP IC50 (glucagon receptor [7]): 68.4 nM
- cAMP pA2 (glucagon receptor [7]): 7.22
B10: [hCys^9(SO3H)]Glucagon(aa4-29)-NH2 (peptide)
peptide: GTFTSXYSKYLDSRRAQDFVQWLMNT
HELM: PEPTIDE1{G.T.F.T.S.[O=C([C@H](CCS(=O)(=O)O)N[*:1])[*:2]].Y.S.K.Y.L.D.S.R.R.A.Q.D.F.V.Q.W.L.M.N.T.[am]}$$$$V2.0; N-terminus assumed
SMILES: CSCC[C@H](NC(=O)[C@H](CC(C)C)NC(=O)[C@H](Cc1c[nH]c2ccccc12)NC(=O)[C@H](CCC(N)=O)NC(=O)[C@@H](NC(=O)[C@H](Cc1ccccc1)NC(=O)[C@H](CC(=O)O)NC(=O)[C@H](CCC(N)=O)NC(=O)[C@H](C)NC(=O)[C@H](CCCNC(=N)N)NC(=O)[C@H](CCCNC(=N)N)NC(=O)[C@H](CO)NC(=O)[C@H](CC(=O)O)NC(=O)[C@H](CC(C)C)NC(=O)[C@H](Cc1ccc(O)cc1)NC(=O)[C@H](CCCCN)NC(=O)[C@H](CO)NC(=O)[C@H](Cc1ccc(O)cc1)NC(=O)[C@H](CCS(=O)(=O)O)NC(=O)[C@H](CO)NC(=O)[C@@H](NC(=O)[C@H](Cc1ccccc1)NC(=O)[C@@H](NC(=O)CN)[C@@H](C)O)[C@@H](C)O)C(C)C)C(=O)N[C@@H](CC(N)=O)C(=O)N[C@H](C(N)=O)[C@@H](C)O

- IC50(nM) (cAMP, inhibit 0.8 mM Glucagon) (glucagon receptor [5]): 64.8 nM
- IC50 (glucagon receptor [14]): 12.3 nM
- IC50 (glucagon receptor [15]): 12.3 nM
B12: [PLA6, E9]Glucagon(aa6-29)-NH2 (peptide)
peptide: [PhLac]TSEYSKYLDSRRAQDFVQWLMNT-NH2

Further lines, the binder ahead of its results:

B1: ANK2 (Bayer peptide) (peptide)
peptide: HSQGTFTSDYARYLDARRAREFIKWLVRGRG
- GLP-1 EC50 (GLP-1 receptor [1]): 0.28 nM

B2: [PLA6, D9, E16K20(lactam), D28]G(6-29) (peptide)
peptide: {PLA}-TSDYSKYLDERRAKDFVQWLMDT-NH2
modifications: lactam 10-14
- Glucagon IC50 (glucagon receptor [2]): 10 to 30 nM
- Glucagon IC50 (glucagon receptor [3]): 6 nM
- GLP-1 EC50 (GLP-1 receptor [4]): 4 nM

B4: [Ac-PLA^6, E^9]Glucagon(aa6-29)-NH2 (peptide)
peptide: {Ac-PLA}-TSEYSKYLDSRRAQDFVQWLMNT-NH2
- IC50(nM) (cAMP, inhibit 0.8 mM Glucagon) (glucagon receptor [5]): 38.1 nM

B6: [Glu^9]Glucagon(aa6-29)-NH2 (peptide)
peptide: FTSEYSKYLDSRRAQDFVQWLMNT-NH2
notes: also called [E^9]Glucagon(aa6-29)-NH2; peptide no
- cAMP Inhibition IC50 (glucagon receptor [8]): 97 nM
- cAMP (I/A)50 (glucagon receptor [9]): 486
- cAMP pA2 (glucagon receptor [9]): 7.16
- IC50 (glucagon receptor [10]): 36.4 nM
- cAMP IC50 (glucagon receptor [11]): 97.2 nM
- cAMP pA2 (glucagon receptor [11]): 7.16
- IC50 (glucagon receptor [12]): 36 nM
- IC50 (glucagon receptor [13]): 36.4 nM

B7: [Glu^9]Glucagon(aa4-29)-NH2 (peptide)
peptide: GTFTSEYSKYLDSRRAQDFVQWLMNT-NH2
notes: also called peptide no
- cAMP Inhibition IC50 (glucagon receptor [8]): 128 nM
- cAMP pA2 (glucagon receptor [9]): 7.05

B11: [E9, E16K20(lactam), D28]G(4~29) (peptide)
peptide: GTFTSEYSKYLDERRAKDFVQWLMDT
HELM: PEPTIDE1{G.T.F.T.S.E.Y.S.K.Y.L.D.E.R.R.A.K.D.F.V.Q.W.L.M.D.T.[am]}$PEPTIDE1,PEPTIDE1,13:R3-17:R3$$$V2.0; N-terminus assumed
SMILES: CSCC[C@H](NC(=O)[C@H](CC(C)C)NC(=O)[C@H](Cc1c[nH]c2ccccc12)NC(=O)[C@H](CCC(N)=O)NC(=O)[C@@H](NC(=O)[C@H](Cc1ccccc1)NC(=O)[C@H](CC(=O)O)NC(=O)[C@@H]1CCCCNC(=O)CC[C@H](NC(=O)[C@H](CC(=O)O)NC(=O)[C@H](CC(C)C)NC(=O)[C@H](Cc2ccc(O)cc2)NC(=O)[C@H](CCCCN)NC(=O)[C@H](CO)NC(=O)[C@H](Cc2ccc(O)cc2)NC(=O)[C@H](CCC(=O)O)NC(=O)[C@H](CO)NC(=O)[C@@H](NC(=O)[C@H](Cc2ccccc2)NC(=O)[C@@H](NC(=O)CN)[C@@H](C)O)[C@@H](C)O)C(=O)N[C@@H](CCCNC(=N)N)C(=O)N[C@@H](CCCNC(=N)N)C(=O)N[C@@H](C)C(=O)N1)C(C)C)C(=O)N[C@@H](CC(=O)O)C(=O)N[C@H](C(N)=O)[C@@H](C)O
- Glucagon IC50 (glucagon receptor [2]): 10 to 30 nM
- GLP-1 EC50 (GLP-1 receptor [1]): 151 nM
